Assay results taken from patent US11649460B2, “DNA aptamers, method for inhibiting human galectin-1 and method of treating a mammal in need thereof” (priority 2020, dated 2023).

Tests used:
[1] = system: MCF-7 human breast adenocarcinoma cell line; assay: SRB cell proliferation (cytotoxicity) assay, MCF-7
From the text: (§1) The XLSTAT software was used to determine the IC50, TGI and LC50 values using the four-parameter logistic curve equation.

[2] = system: DU-145 human prostate carcinoma cell line; assay: SRB cell proliferation (cytotoxicity) assay, DU-145
From the text: as §1

[3] = system: HT-29 human colorectal adenocarcinoma; assay: SRB cell proliferation (cytotoxicity) assay, HT-29
From the text: as §1

[4] = system: NHF human foreskin skin fibroblasts; assay: in vitro
From the text: as §1

OVCAR-3 cell line = assay: Synergism test with cisplatin, OVCAR-3; conditions: aptamer 12.5 μM associated with cisplatin 3 μM
From the text: For the analysis of cell proliferation, the non-clonogenic method of sulforodamine B (SRB) was used, a protein dye that binds to the basic amino acid residues of cell proteins that were viable at the time of the fixation process. Therefore, the greater the amount of SRB bound per compartment, the less the antiproliferative activity of the item under study.

B1: CTGACACAGCAGGTTGGTGCCAACTAACACCATAAGAATACCCCGCTCCAAATAAGCCCACACGTAAACCCGAGTCGAGCAATCTCGAAAT (nucleic acid)
DNA: CTGACACAGCAGGTTGGTGCCAACTAACACCATAAGAATACCCCGCTCCAAATAAGCCCACACGTAAACCCGAGTCGAGCAATCTCGAAAT
modifications: chemistry not given here
notes: DNA aptamer that recognizes human galectin-1
Relative viability (%) of test items ([1]; 0.781 µM): 110.4%
Relative viability (%) of test items ([1]; 1.562 µM): 96.7%
Relative viability (%) of test items ([1]; 3.125 µM): 95.8%
Relative viability (%) of test items ([1]; 6.25 µM): 86.2%
Relative viability (%) of test items ([1]; 12.5 µM): 72.7%
Relative viability (%) of test items ([1]; 25 µM): 60.9%
Relative viability (%) of test items ([1]; 50 µM): 43.4%
Relative viability (%) of test items ([1]; 100 µM): 0.7%
TGI: Concentration for total inhibition of cell growth ([1]; MCF-7): >100 µM
IC50 ([1]; read-out: IC50: Concentration to inhibit 50% of cell growth, MCF-7): 35.1 µM
CC50 ([1]; read-out: LC50: Concentration for 50% cell death, MCF-7): > 100 µM
Relative viability (%) of test items ([2]; 0.781 µM): 109.3%
Relative viability (%) of test items ([2]; 1.562 µM): 100.6%
Relative viability (%) of test items ([2]; 3.125 µM): 104.7%
Relative viability (%) of test items ([2]; 6.25 µM): 109.6%
Relative viability (%) of test items ([2]; 12.5 µM): 104.3%
Relative viability (%) of test items ([2]; 25 µM): 88.5%
Relative viability (%) of test items ([2]; 50 µM): 68.4%
Relative viability (%) of test items ([2]; 100 µM): 36.0%
IC50 ([2]; read-out: IC50: Concentration to inhibit 50% of cell growth, DU-145): 72.6 µM
Relative cell viability (%) of test items ([3]; 0.781 µM): 93.5%
Relative cell viability (%) of test items ([3]; 1.562 µM): 90.7%
Relative cell viability (%) of test items ([3]; 3.125 µM): 88.6%
Relative cell viability (%) of test items ([3]; 6.25 µM): 74.6%
Relative cell viability (%) of test items ([3]; 12.5 µM): 47.4%
Relative cell viability (%) of test items ([3]; 25 µM): 5.8%
Relative cell viability (%) of test items ([3]; 50 µM): −84.0%
Relative cell viability (%) of test items ([3]; 100 µM): −61.1%
TGI: Concentration for total inhibition of cell growth ([3]; HT-29): 22.932 µM
IC50 ([3]; read-out: IC50: Concentration to inhibit 50% of cell growth, HT-29): 13.5 µM
CC50 ([3]; read-out: LC50: Concentration for 50% cell death, HT-29): 40.9 µM
Relative viability (%) of test items ([4]; 0.781 µM): 95.3%
Relative viability (%) of test items ([4]; 1.562 µM): 94.2%
Relative viability (%) of test items ([4]; 3.125 µM): 98.4%
Relative viability (%) of test items ([4]; 6.25 µM): 100.7%
Relative viability (%) of test items ([4]; 12.5 µM): 106.6%
Relative viability (%) of test items ([4]; 25 µM): 73.4%
Relative viability (%) of test items ([4]; 50 µM): 19.8%
Relative viability (%) of test items ([4]; 100 µM): −25.4%
TGI: Concentration for total inhibition of cell growth ([4]; NHF): 63.101 µM
IC50 ([4]; read-out: IC50: Concentration to inhibit 50% of cell growth, NHF): 35.6 µM
decrease of cell viability versus cisplatin alone (OVCAR-3 cell line): ~60%
